Our source for the percentage of lysis of the target HeLa cells (Calcein release), NKG2A-KO against wild-type NK-92 effector cells (% more target HeLa cells killed) values is patent US20180100158A1.

The assay has as its target HLA-E expressed on the surface of HeLa cells (human (endogenous on HeLa cells)) (UniProt P13747). In words: cell-based or functional assay.
Sequence of UniProt P13747 (P13747 22-358): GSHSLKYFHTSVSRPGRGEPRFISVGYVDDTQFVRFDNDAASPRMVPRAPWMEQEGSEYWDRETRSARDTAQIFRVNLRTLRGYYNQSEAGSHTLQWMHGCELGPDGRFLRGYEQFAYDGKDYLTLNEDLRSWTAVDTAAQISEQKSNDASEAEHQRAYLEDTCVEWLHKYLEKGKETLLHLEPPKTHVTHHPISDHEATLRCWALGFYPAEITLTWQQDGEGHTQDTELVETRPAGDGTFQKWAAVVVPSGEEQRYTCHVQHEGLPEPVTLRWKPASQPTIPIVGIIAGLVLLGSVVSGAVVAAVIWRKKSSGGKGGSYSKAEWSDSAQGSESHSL

As to “NKG2A receptor on the surface of NK-92 cells (from UniProt P26715 1-233)”, the percentage of lysis of the target HeLa cells (Calcein release), NKG2A-KO against wild-type NK-92 effector cells (% more target HeLa cells killed) was 10 to 15.
